human NOV8 (EDSP, Endothelial Dual Specificity Phosphatase domain-containing protein)
in vitro phosphorylation (dephosphorylation) assay (P38 MAP kinase): has little activity on P38 MAP kinase
in vitro phosphorylation (dephosphorylation) assay (ERK): can dephosphorylate ERK and JNK
in vitro phosphorylation (dephosphorylation) assay (JNK): can dephosphorylate ERK and JNK

Source: patent US20030198957
